Assay results reported in IntAct's records for PubMed 23644599.

B1: mRNA decay activator protein ZFP36 (Homo sapiens), P26651 (parent)
chain: MDLTAIYESLLSLSPDVPVPSDHGGTESSPGWGSSGPWSLSPSDSSPSGVTSRLPGRSTSLVEGRSCGWVPPPPGFAPLAPRLGPELSPSPTSPTATSTTPSRYKTELCRTFSESGRCRYGAKCQFAHGLGELRQANRHPKYKTELCHKFYLQGRCPYGSRCHFIHNPSEDLAAPGHPPVLRQSISFSGLPSGRRTSPPPPGLAGPSLSSSSFSPSSSPPPPGDLPLSPSAFSAAPGTPLARRDPTPVCCPSCRRATPISVWGPLGGLVRTPSVQSLGSDPDEYASSGSSLGGSDSPVFEAGVFAPPQPVAAPRRLPIFNRISVSE

Variants of: B1
Settings: with CNOT1, A5YKK6-2
Sequence of CNOT1, A5YKK6-2 (A5YKK6 other isoform, or with tags, fused parts or gaps): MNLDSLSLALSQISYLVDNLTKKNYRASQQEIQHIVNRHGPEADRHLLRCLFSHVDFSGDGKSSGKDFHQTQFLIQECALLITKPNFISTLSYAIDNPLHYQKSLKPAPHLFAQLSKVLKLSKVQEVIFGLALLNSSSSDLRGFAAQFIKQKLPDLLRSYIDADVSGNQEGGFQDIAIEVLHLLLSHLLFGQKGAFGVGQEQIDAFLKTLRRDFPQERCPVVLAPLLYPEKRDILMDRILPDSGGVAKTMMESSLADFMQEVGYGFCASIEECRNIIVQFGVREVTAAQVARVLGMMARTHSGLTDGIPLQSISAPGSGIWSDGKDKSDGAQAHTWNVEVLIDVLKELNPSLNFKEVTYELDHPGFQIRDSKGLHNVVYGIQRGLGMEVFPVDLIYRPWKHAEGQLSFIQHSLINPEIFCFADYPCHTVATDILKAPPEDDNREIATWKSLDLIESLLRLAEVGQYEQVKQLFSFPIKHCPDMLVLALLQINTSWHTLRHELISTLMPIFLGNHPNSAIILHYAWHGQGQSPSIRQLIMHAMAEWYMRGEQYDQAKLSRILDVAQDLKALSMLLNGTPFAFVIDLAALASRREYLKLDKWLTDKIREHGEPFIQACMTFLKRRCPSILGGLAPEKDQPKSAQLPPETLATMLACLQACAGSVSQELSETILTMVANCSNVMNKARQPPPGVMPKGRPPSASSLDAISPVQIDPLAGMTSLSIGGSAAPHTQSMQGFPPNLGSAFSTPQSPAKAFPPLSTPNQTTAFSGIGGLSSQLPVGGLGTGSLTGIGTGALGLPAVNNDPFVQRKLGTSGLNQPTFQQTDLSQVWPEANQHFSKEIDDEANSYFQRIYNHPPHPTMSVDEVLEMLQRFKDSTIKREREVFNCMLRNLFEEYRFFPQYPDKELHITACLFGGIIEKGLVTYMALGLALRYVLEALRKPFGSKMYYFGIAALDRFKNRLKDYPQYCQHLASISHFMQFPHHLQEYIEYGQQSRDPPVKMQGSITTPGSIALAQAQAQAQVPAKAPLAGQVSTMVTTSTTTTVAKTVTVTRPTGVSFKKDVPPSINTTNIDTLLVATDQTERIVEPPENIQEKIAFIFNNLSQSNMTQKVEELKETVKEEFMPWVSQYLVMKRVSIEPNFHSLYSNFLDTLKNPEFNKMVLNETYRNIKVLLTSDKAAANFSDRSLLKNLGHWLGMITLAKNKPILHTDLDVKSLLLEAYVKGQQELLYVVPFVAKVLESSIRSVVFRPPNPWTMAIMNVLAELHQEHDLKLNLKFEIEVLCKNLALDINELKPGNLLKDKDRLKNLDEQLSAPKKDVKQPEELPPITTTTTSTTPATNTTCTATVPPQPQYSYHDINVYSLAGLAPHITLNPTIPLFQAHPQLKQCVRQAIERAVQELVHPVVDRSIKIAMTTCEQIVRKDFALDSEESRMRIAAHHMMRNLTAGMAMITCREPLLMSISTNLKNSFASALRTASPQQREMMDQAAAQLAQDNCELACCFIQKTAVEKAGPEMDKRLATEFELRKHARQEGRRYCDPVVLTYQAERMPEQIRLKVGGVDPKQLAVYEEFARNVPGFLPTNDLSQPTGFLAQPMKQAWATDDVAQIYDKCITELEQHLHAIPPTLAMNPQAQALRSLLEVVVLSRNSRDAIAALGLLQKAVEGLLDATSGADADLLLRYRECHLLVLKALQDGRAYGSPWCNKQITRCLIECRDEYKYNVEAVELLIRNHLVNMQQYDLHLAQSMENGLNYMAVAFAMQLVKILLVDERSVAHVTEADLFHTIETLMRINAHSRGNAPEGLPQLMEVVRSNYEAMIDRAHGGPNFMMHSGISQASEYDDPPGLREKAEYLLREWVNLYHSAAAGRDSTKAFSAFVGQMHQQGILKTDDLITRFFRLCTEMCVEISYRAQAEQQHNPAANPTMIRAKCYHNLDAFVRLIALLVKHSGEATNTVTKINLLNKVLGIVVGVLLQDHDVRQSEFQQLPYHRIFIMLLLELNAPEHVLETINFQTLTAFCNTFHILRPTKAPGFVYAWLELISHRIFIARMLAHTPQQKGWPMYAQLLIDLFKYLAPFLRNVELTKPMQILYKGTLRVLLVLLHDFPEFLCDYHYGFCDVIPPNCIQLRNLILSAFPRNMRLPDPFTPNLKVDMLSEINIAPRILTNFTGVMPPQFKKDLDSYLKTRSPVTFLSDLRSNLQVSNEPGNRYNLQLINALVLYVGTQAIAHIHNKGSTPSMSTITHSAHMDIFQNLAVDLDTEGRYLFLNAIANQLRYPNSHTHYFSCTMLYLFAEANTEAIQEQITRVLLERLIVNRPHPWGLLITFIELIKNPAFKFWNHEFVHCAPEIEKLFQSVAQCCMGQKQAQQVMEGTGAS

Row | effect of a mutation on the interaction | Variant
1 | disrupting interaction strength | F319A

Variants of: B1
Settings: with CNOT1, A5YKK6-2
Remark: another data set of the same source

Row | effect of a mutation on the interaction | Variant
2 | disrupting interaction strength | R315A
